# Results from patent US20220017589A1 (BEIJING QL BIOPHARMACEUTICAL, published 2022).
# T1: human GFRAL (human, UniProt Q6UXV0 19-394)
# T1 sequence (looked up): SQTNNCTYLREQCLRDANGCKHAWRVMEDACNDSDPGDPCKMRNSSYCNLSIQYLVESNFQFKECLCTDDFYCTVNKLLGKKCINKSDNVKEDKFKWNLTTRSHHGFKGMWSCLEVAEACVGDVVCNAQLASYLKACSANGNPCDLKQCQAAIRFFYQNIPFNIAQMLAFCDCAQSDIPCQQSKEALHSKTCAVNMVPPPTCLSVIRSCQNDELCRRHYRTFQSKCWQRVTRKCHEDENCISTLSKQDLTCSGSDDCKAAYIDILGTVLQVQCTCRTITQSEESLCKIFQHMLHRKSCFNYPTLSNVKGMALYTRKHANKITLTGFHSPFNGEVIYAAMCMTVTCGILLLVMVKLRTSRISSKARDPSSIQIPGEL
# Columns and labels:
# Test in all cases: cell-based or functional assay
# [1] = target: T1, human GFRAL
# [2] = target: T2, human GLP-1 receptor (human, UniProt P43220 24-463)
# [3] = target: T1, human GFRAL; remark: listed apart in the source
# [4] = target: T2, human GLP-1 receptor; remark: listed apart in the source
"GDF15 activity (EC50, pM, 1% HSA) [1] [pM]","GLP-1 activity (EC50, pM, 1% HSA) [2] [pM]","GDF15 activity (EC50, pM) [3] [pM]","GLP-1 activity (EC50, pM) [4] [pM]",Binder
194,7.52,54.9,11,"MLC111 (ligand, Moiety B (HOOC-(CH2)16-CO-gGlu-2XADO-EDA-CO-CH2) on 51C of Linker (82C of fusion polypeptide)) HGEGTFTSDVSSYLEEQAAKEFIAWLVRGGGGAQPGAQPGAQPGAQPGAQPGAQPGAQPGAQPGQEPGAQPGQEPGAQPGQCPGQEPGQEPGAQPGQEPGAQPGQEPGAQPARQGDHCPLGPGRCCRLHTVRASLEDLGWADWVLSPREVQVTMCIGACPSQFRAANLHAQIKTSLHRLKPDTVPAPCCVPASYNPMVLIQKTDTGVSLQTYDDLLAKDCHCI"
67.6,27.3,54.8,1.4,"MLC093 (ligand, Moiety B (HOOC-(CH2)16-CO-gGlu-2XADO-EDA-CO-CH2) on 33C of Linker (64C of fusion polypeptide)) HGEGTFTSDVSSYLEEQAAKEFIAWLVRGGGGAQPGAQPGAQPGAQPGAQPGAQPGAQPGAQPCQEPGAQPGQEPGAQPGQEPGAQPGQEPGAQPGQEPGAQPGQEPGAQPARQGDHCPLGPGRCCRLHTVRASLEDLGWADWVLSPREVQVTMCIGACPSQFRAANLHAQIKTSLHRLKPDTVPAPCCVPASYNPMVLIQKTDTGVSLQTYDDLLAKDCHCI"

# Continued, binder first:
Binder,"GDF15 activity (EC50, pM, 1% HSA) [1] [pM]","GLP-1 activity (EC50, pM, 1% HSA) [2] [pM]","GDF15 activity (EC50, pM) [3] [pM]","GLP-1 activity (EC50, pM) [4] [pM]"
"MLC087 (ligand, Moiety B (HOOC-(CH2)16-CO-gGlu-2XADO-EDA-CO-CH2) on 41C of Linker (72C of fusion polypeptide)) HGEGTFTSDVSSYLEEQAAKEFIAWLVRGGGGAQPGAQPGAQPGAQPGAQPGAQPGAQPGAQPGQEPGAQPCQEPGAQPGQEPGAQPGQEPGAQPGQEPGAQPGQEPGAQPARQGDHCPLGPGRCCRLHTVRASLEDLGWADWVLSPREVQVTMCIGACPSQFRAANLHAQIKTSLHRLKPDTVPAPCCVPASYNPMVLIQKTDTGVSLQTYDDLLAKDCHCI",49.2,24.4,23.8,1.4
"MLC089 (ligand, Moiety B (HOOC-(CH2)16-CO-gGlu-2XADO-EDA-CO-CH2) on 39C of Linker (70C of fusion polypeptide)) HGEGTFTSDVSSYLEEQAAKEFIAWLVRGGGGAQPGAQPGAQPGAQPGAQPGAQPGAQPGAQPGQEPGQCPGQEPGAQPGQEPGAQPGQEPGAQPGQEPGAQPGQEPGAQPARQGDHCPLGPGRCCRLHTVRASLEDLGWADWVLSPREVQVTMCIGACPSQFRAANLHAQIKTSLHRLKPDTVPAPCCVPASYNPMVLIQKTDTGVSLQTYDDLLAKDCHCI",66.2,24.4,42.9,1.2
